Bounds are passed on as bounds.

Experiment [1] has as its target T1, Clostridium perfringens enterotoxin with C-terminal decahistidine tag (CpE-His10) (Clostridium perfringens, UniProt P01558 1-319).
T1 sequence: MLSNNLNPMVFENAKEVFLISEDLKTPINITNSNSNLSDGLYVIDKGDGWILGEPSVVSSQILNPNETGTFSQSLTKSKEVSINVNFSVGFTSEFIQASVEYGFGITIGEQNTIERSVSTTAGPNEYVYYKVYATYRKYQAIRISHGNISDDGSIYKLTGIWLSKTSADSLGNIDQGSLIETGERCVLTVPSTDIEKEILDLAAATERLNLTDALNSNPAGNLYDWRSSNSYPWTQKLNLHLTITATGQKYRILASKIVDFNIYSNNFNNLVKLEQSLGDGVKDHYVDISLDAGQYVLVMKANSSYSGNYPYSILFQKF
As to the kind of experiment: BLI. To be noted: both partners purified.

The target of experiment [2] is T2, pre-formed hsCLDN-3-Biotin/CpE-His10 complex (Homo sapiens CLDN3; Clostridium …, UniProt O15551;P01558).
T2 construct: source: pre-formed from the purified proteins (same method as the cCpE complexes)
Kind of experiment: BLI. To be noted: both partners purified.

Experiment [3] has as its target T3, pre-formed non-detergent hsCLDN-4/cCpE-His10 complex (hsCLDN-4 in amphipol A8-35 or in nanodiscs) (Homo sapiens CLDN4; Clostridium …).
T3 chain 1: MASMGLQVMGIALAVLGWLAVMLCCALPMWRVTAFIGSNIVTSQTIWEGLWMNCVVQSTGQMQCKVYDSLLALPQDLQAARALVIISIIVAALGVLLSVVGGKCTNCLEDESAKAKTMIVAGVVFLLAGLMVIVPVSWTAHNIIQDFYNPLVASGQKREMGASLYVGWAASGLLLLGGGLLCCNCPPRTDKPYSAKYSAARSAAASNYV
T3 chain 2: not shown
Kind of experiment: BLI. To be noted: both partners purified.

The target in experiment [4] is T4, C-terminal domain of Clostridium perfringens enterotoxin with decahistidine tag (cCpE-His10) (Clostridium perfringens, UniProt P01558).
T4 construct: source: insect cells, purified (NiNTA, eluted with imidazole); not shown: His10, C-terminal, kept
As to the kind of experiment: BLI. Particulars: both partners purified.

In experiment [5] the target is T5, hsCLDN-4/cCpE complex (tagless proteins) (Homo sapiens CLDN4; Clostridium …).
T5 chain 1: T3 chain 1
T5 chain 2: not shown

The target in experiment [6] is C-terminal domain of Clostridium perfringens enterotoxin (cCpE), tagless (Clostridium perfringens, UniProt P01558).

B1: mouse claudin-3, biotinylated (mmCLDN-3-Biotin) (natural protein)
chain: MSMGLEITGTSLAVLGWLCTIVCCALPMWRVSAFIGSSIITAQITWEGLWMNCVVQSTGQMQCKMYDSLLALPQDLQAARALIVVSILLAAFGLLVALVGAQCTNCVQDETAKAKITIVAGVLFLLAALLTLVPVSWSANTIIRDFYNPLVPEAQKREMGAGLYVGWAAAALQLLGGALLCCSCPPRDKYAPTKILYSAPRSTGPGTGTGTAYDRKDYV
modifications: biotin (NHS-PEG4-Biotin) on the N-terminal amine
Turning to B1, binding in experiment [1] was put at a Kd of 16.1 ± 0.2 nM.

B2: COP-1 (CpE Obstructing Protein 1), synthetic antibody fragment (Fab, V domains shown)
VH: EVQLVESGGGLVQPGGSLRLSCAASGFNFSSSYIHWVRQAPGKGLEWVASISSSSGSTSYADSVKGRFTISADTSKNTAYLQMNSLRAEDTAVYYCARWFHPWWWWEYLFRGAIDYWGQGTLVTVSS
VL: DIQMTQSPSSLSASVGDRVTITCRASQSVSSAVAWYQQKPGKAPKLLIYSASSLYSGVPSRFSGSRSGTDFTLTISSLQPEDFATYYCQQSSSSLITFGQGTKVEIK
notes: also called sFab
As to B2, the figures for the binding result in experiment [2] and in experiment [4] were “no binding (tested: 250 nM COP-1)” and “no binding (tested: 0–750 nM COP-1)”, respectively. Further, the Kd (commonly the free concentration of one partner at which half of the binding sites on the other are occupied at equilibrium, for simple one-to-one binding) in experiment [3] is below 100 nM.

B3: human claudin-3, biotinylated (hsCLDN-3-Biotin) (natural protein)
chain: MSMGLEITGTALAVLGWLGTIVCCALPMWRVSAFIGSNIITSQNIWEGLWMNCVVQSTGQMQCKVYDSLLALPQDLQAARALIVVAILLAAFGLLVALVGAQCTNCVQDDTAKAKITIVAGVLFLLAALLTLVPVSWSANTIIRDFYNPVVPEAQKREMGAGLYVGWAAAALQLLGGALLCCSCPPREKKYTATKVVYSAPRSTGPGASLGTGYDRKDYV
modifications: biotin (NHS-PEG4-Biotin) on the N-terminal amine
Consider B3, for which binding in experiment [1] was characterised by a dissociation constant (Kd) of 77.6 ± 0.9 nM.

B4: human claudin-9, biotinylated (hsCLDN-9-Biotin) (natural protein)
chain: MASTGLELLGMTLAVLGWLGTLVSCALPLWKVTAFIGNSIVVAQVVWEGLWMSCVVQSTGQMQCKVYDSLLALPQDLQAARALCVIALLLALLGLLVAITGAQCTTCVEDEGAKARIVLTAGVILLLAGILVLIPVCWTAHAIIQDFYNPLVAEALKRELGASLYLGWAAAALLMLGGGLLCCTCPPPQVERPRGPRLGYSIPSRSGASGLDKRDYV
modifications: biotin (NHS-PEG4-Biotin) on the N-terminal amine
Regarding B4, binding in experiment [1] was put at a Kd of 10.5 ± 0.2 nM. This Kd lies about 7.4-fold lower than the previous one.

B5: human claudin-4, biotinylated (hsCLDN-4-Biotin) (natural protein)
chain: T3 chain 1
modifications: biotin (NHS-PEG4-Biotin) on the N-terminal amine
With B5, the Kd in experiment [1] stood at 7.3 ± 0.2 nM.

B6: mouse claudin-4, biotinylated (mmCLDN-4-Biotin) (natural protein)
chain: MASMGLQVLGISLAVLGWLGIILSCALPMWRVTAFIGSNIVTAQTSWEGLWMNCVVQSTGQMQCKMYDSMLALPQDLQAARALMVISIIVGALGMLLSVVGGKCTNCMEDETVKAKIMITAGAVFIVASMLIMVPVSWTAHNVIRDFYNPMVASGQKREMGASLYVGWAASGLLLLGGGLLCCSCPPRSNDKPYSAKYSAARSVPASNYV
modifications: biotin (NHS-PEG4-Biotin) on the N-terminal amine
The molecule B6 showed a Kd in experiment [1] of 17.9 ± 0.2 nM.

B7: COP-3 (antibody, V domains shown)
VH: EVQLVESGGGLVQPGGSLRLSCAASGFNFYSSSIHWVRQAPGKGLEWVAYISSYSGYTYYADSVKGRFTISADTSKNTAYLQMNSLRAEDTAVYYCARGYGYFDYNFSVGYALDYWGQGTLVTVSS
VL: DIQMTQSPSSLSASVGDRVTITCRASQSVSSAVAWYQQKPGKAPKLLIYSASSLYSGVPSRFSGSRSGTDFTLTISSLQPEDFATYYCQQSHPWYYPITFGQGTKVEIK
Consider B7, for which the binding result in experiment [5] and in experiment [6] was “binds” throughout.

The values above are taken from PMC11183071 (Communications Biology, 2024).
